Measured values from patent publication US20190367619A1 (ARGENX, published 2019).
Changes are numbered by the printed parent chain.

T1: human galectin-10-His (recombinant human galectin-10 with TEV-cleavable N-terminal His-tag) (human)
T1 construct: SEC-MALLS: dimer in solution; also called Gal10-His; humanGal10-His
T1 chain: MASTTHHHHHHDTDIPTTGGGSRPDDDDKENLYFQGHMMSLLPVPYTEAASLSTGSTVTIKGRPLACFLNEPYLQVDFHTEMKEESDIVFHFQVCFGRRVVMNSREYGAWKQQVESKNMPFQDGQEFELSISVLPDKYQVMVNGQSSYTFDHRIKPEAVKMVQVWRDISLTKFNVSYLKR

T2: human galectin-10-His (human)
T2 construct: The last M of the tag may be Met1 of galectin-10; also called humanGal10-His; hGal10
T2 chain: T1 chain

T3: cynomolgus galectin-10-His, WGS isoform (cynomolgus)
T3 construct: also called cynoGal10-WGS; not shown: His tag
T3 chain: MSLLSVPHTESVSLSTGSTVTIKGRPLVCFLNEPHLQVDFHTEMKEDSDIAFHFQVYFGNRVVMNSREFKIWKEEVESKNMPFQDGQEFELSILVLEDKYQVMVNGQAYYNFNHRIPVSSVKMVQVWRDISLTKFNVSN

T4: human galectin-10 as coated in ELISA (soluble galectin-10; tag not given) (human, UniProt Q05315 1-142, limits assumed)
T4 construct: also called coated galectin-10; Gal10
T4 sequence: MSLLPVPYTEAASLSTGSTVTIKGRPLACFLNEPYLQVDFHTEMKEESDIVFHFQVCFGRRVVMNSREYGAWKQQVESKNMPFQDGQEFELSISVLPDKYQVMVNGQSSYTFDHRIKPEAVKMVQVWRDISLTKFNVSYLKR

T5: cynomolgus galectin-10-His, YRT isoform (cynomolgus)
T5 construct: also called cynoGal10-YRT; not shown: His tag
T5 chain: T3 chain with K23E, G24A, L31F, F69Y, K70R, I71T, S92R

T6: recombinant human galectin-10, TEV-cleaved (human, UniProt Q05315 1-142)
T6 sequence: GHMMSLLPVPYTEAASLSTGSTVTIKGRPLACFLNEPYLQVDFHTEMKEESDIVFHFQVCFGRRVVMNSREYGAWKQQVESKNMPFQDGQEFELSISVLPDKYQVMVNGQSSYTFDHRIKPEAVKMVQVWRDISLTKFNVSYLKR

B1: scFv 2F09 (periplasmic extract, Myc-tagged) (scFv, not shown: small tags and cut ends)
scFv: QVQVQESGPGLVKPSQTLSLTCTVSGGSITTNYFYWSWIRQSPGKGLEWIGAIAYSGRTYYSPSLKSRTSISRDTSNNQFTLQLSSVTPEDTAVYYCARGPKGLASYYDYWGQGTQVTVSSGGGGSGGGGSGGGGSSSALTQPSAVSVSLGQTARITCQGGNFGYYYVSWYQQKPGQAPVLVIYRDSGRPSGIPERFSGSSSGDTATLTISGAQAEDEADYYCQSGSSSDNTVFGGGTHLTVL
B2: scFv 2C07 (periplasmic extract, Myc-tagged) (scFv, not shown: small tags and cut ends)
scFv: ELQLVESGGGLVQPGGSLRLSCAASGFTFSSYAMSWVRQAPGKGLEWVSNINSGGGSTGYADSVKGRFTISRDNAKNTLYLQMNSLKPEDMAVYYCAKYLRTYYPNAAFGMDYWGKGTLVTVSSGGGGSGGGGSGGGGSQAVLTQPSAVSVSLGQTARITCQGGNFGRYYASWYQQKPGQAPVLVIYRDSERPSGIPERFSGSSSGDTATLTISGAQAEDEADYYCQSGRSSDNAVFGGGTHLTGL
B3: scFv 1D11 (periplasmic extract, Myc-tagged) (scFv, not shown: small tags and cut ends)
scFv: QVQLVESGGGLVQPGGSLRLSCAASGFTFDDYAMSWVRQAPGKGLEWVSGISWNGGSTYYAESMKGRFTISRDNAKNTLYLQMNSLKSEDTAVYYCAKDRNLGYRLGYPYDYWGQGTQVTVSSGGGGSGGGGSGGGGSQSVLTQPPSVSGSPGETVTISCAGTSSDVGYGNYVSWYQQLPGMAPRLLIYEVNKRASGITDRFSGSKSGNTASLTISGLQSEDEGDYYCASYRSSNNAVFGGGTHLTVL
notes: also called 1D011
B4: scFv 1C09 (periplasmic extract, Myc-tagged) (scFv, not shown: small tags and cut ends)
scFv: QVQLVESGPGLVKPSQTLSLTCTVSGGSITTNSYYWSWIRQPPGKGLEWMGAIAYSGSTYYSPSLKSRTSISRDTSKNQFTLHLSSVTPEDTAVYYCARRPNWYRALDAWGQGTLVTVSSGGGGSGGGGSGGGGSNFMLTQPSAVSVSLGQTARITCQGANLGRYYGIWYQQKPGQAPVQVIYGDSNRPSGIPERFSGSSSGGTATLTISGAQAEDEADYYCQSYESSTSPVFGGGTHLTVL
notes: also called 1C9
B5: scFv 4E08 (periplasmic extract, Myc-tagged) (scFv, not shown: small tags and cut ends)
scFv: QVQRQESGPGLVKPSQTLSLTCTVSGGSITTSYYAWSWIRQPPGKGLEWMGVIASDGSTYYSPSLKSRTSISRDTSKNQFSLQLSSVTPEDTAVYYCALYIRGSSWSGWSAYDYWGQGTQVTVSSGGGGSGGGGSGGGGSQPVLNQPSAVSVSLGQTARITCQGGNFGYYYGSWYQQKPGQAPVLVIYKDSERPSGIPERFSGSSSGGTATLTISRAQAEDEADYYCQSADSSDNPVFGGGTHLTVL
notes: also called 4E8
B6: 8H11 mouse IgG1 (antibody, V domains shown)
VH: ELQLVESGGGLVQPGGSLRLSCAASGFTFSTNYMNWVRQAPGKGLEWVSGITSGGGRTYYADSVKGRFTISRDNAKNTLYLQMNSLKPEDTALYYCARTDHAWLDAWGQGTLVTVSS
VL: QAGLTQPPSVSGTLGKTVTISCAGTSSDVGYGNYVSWYQQLPGTAPKLLIYAVSTRASGIPDRFSGSKSGNTASLTISGLLSEDEADYYCASYRSSNNYVFGGGTKLTVL
notes: VH and VL cloned in frame with mouse IgG1 constant domains; also called 8H11 mIgG1
B7: 11F02 mouse IgG1 (antibody, V domains shown)
VH: B6 VH with L4V, G54H, G56A, A75S, W103S
VL: QTVVTQEPSLSVSPGGTVTLTCGLSSGSVTSSNYPGWYQQKPGQAPRTLIYNTNSRYSGVPNRFSGSISGNKAALTITGAQPEDEADYYCALYMGSSSYNTVFGGGTHLTVL
notes: VH and VL cloned in frame with mouse IgG1 constant domains; also called 11F02 mIgG1
B8: 10B02 mouse IgG1 (antibody, V domains shown)
VH: QVQLVESGGGLVQPGGSLRVSCAASGFTFSYHYMNWVRQAPGKGLEWVSGISAGGGRTYYADSVKGRFTISRDNAKNTLYLQMNSLNAEDTALYYCARVHGITNDYWGQGTQVTVSS
VL: QSALTQPPSVSGSPGKTVTISCAGTSSDVGYGNYVSWYQQLPGMAPKLLIYEVNKRASGITDRFSGSKSGNTAFLTISGLQSEDEADYYCASYRNSNNWVFGGGTHLTVL
notes: VH and VL cloned in frame with mouse IgG1 constant domains; also called 10B02 mIgG1
B9: 10D02 mouse IgG1 (antibody, V domains shown)
VH: EVQLVESGGGLVQPGGSLRVSCAASGFTFSSYYMSWVRQAPGKGLEWVSGIVTGGGRTHYTDSVKGRFTITRDNAKNTLYLQMNSLRPEDTALYYCARVNGVVTNYDYWGQGTQVTVSS
VL: B8 VL with S2A, A3V, E52D, F74S, Y89F, N95S, S96P, W99V, G103Q
notes: VH and VL cloned in frame with mouse IgG1 constant domains; also called 10D02 mIgG1

Target: T1, human galectin-10-His (recombinant …)
Experiment: BLI Octet RED96, galectin-10-His on anti-Penta-His tips, scFv periplasmic extract 1/10
Procedure: Briefly, galectin-10-His tagged diluted in Kinetic Buffer was captured on Anti-Penta His 1K sensor tips until an immobilization level of 1 nm was reached. Then, diluted periplasmic extracts (1/10) were applied and association/dissociation to immobilized galectin-10-His was measured using the ForteBio Data analysis 9.0 software (subtraction of the reference Tips, 1.1 binding model). During the screening, only the dissociation (off-rate) of the scFv can be determined since the effective concentration of the scFv is unknown and can vary a lot from clone to clone. […] Therefore, taking into consideration the ELISA and BLI data, a new panel of lead scFvs was selected.

| koff [s⁻¹] | Binder |
| --- | --- |
| 0.0099 | B1 |
| 0.0067 | B2 |
| 0.0052 | B3 |
| 0.0014 | B4 |
| 0.0094 | B5 |

Target: T2, human galectin-10-His
Experiment: SPR Biacore T3000, mouse IgG1 captured
Procedure: (§1) The binding capacity of the mouse IgG1 antibody panel to galectin-10 was analysed on Biacore T3000. For this purpose, a capture approach was used, where a fixed concentration (1.5 μg/mL) of the mouse IgG1 clone was captured by polyclonal anti-mouse Fc antibodies immobilized on CM5 Chip to reach a binding signal around 150 RU. Then a serial dilution of human and cynomolgus WGS isoform of galectin-10-His (serial dilution, 1 over 2 from 5 μg/mL) diluted in HBS-EP pH7.4 was injected. Raw data were analysed via BIA evaluation software with a blank subtraction. The kd/KD and Rmax of each mAbs to galectin-10-His was determined using the Fit Kinetics simultaneous ka/kd/Binding with mass transfer/Local Rmax on BIA evaluation software.

| Kd [nM] | koff [s⁻¹] | kon [M⁻¹ s⁻¹] | Binder |
| --- | --- | --- | --- |
| 0.9 | 0.00197 | 2.31e+06 | B6 |
| 2.2 | 0.00489 | 2.27e+06 | B7 |
| 1.5 | 0.00205 | 1.42e+06 | B8 |
| 1.6 | 0.000865 | 547000 | B9 |

Target: T3, cynomolgus galectin-10-His, WGS isoform
Experiment: SPR Biacore T3000, mouse IgG1 captured
Procedure: as §1

| Kd [nM] | koff [s⁻¹] | kon [M⁻¹ s⁻¹] | Binder |
| --- | --- | --- | --- |
| 4.4 | 0.000754 | 170000 | B6 |
| 5 | 0.00198 | 394000 | B7 |
| 0.9 | 0.00042 | 494000 | B8 |
| 1.9 | 0.000912 | 477000 | B9 |

Each binder was assayed against T4, human galectin-10 as coated in ELISA … (assay: ELISA, scFv periplasmic extract on coated soluble galectin-10, anti-Myc-HRP).
Procedure: In order to test the binding capacity of the scFvs to galectin-10, an ELISA binding assay was established. Briefly, a Maxisorp plate was coated with soluble galectin-10 (1 μg/mL), then blocked with casein, before being incubated with the periplasmic extract (dilution 1/5 in PBS) containing the scFv-Myc. Detection of the binder was carried out with an anti-Myc-HRP antibody. Absorbance was measured at 450 nm (reference at 620 nm) with Tecan instrument. A significant number of galectin-10 scFv binders were isolated after the second round of selection (45-87% of binders).

| ELISA binding (OD values) [OD] | PERI-ELISA binding (OD values) [OD] | Binder |
| --- | --- | --- |
| 3.6 |  | B1 |
| 3.6 | 3.63 | B2 |
| 3.3 |  | B3 |
| 3.5 |  | B4 |
| 3.6 |  | B5 |

Target: T2, human galectin-10-His
Experiment: ELISA, coated antigen 0.5 ug/mL
Procedure: (§2) In a similar setup to that used during the characterization of the scFv-human Fc molecules, the relative binding properties of the 7 mouse IgG1 antibodies were analyzed by ELISA. A Maxisorp plate was coated overnight with 0.5 μg/mL of human or cynomolgus WGS or YRT isoform of galectin-10-His. Then a serial dilution of each clone (from 100 nM, dilution 1/4, 12 points of dilutions) was incubated on coated galectin-10. After several washing steps, detection of the bound mouse IgG1 was carried out with an anti-mouse Fc-HRP antibody (DAMPO, Jackson ImmunoResearch, Catalog 715-035-150). Absorbance was measured at 450 nm (reference at 620 nm) with Tecan instrument. The raw data (OD values) were plotted on GraphPad Prism 7.01. The EC50 values for each antibody, calculated with a non-linear regression (log(agonist) vs. response Variable slope (four parameters)), are shown in the table below. Antibody 1D11 from the previous panel was included for comparison.

| EC50 [nM] | OD values [OD] | Binder |
| --- | --- | --- |
| 1.46 | 1.5 | B6 |
| 3.08 | 0.9 | B7 |
| 2.28 | 1.4 | B8 |
| 3.55 | 2.7 | B9 |

Target: T3, cynomolgus galectin-10-His, WGS isoform
Experiment: ELISA, coated antigen 0.5 ug/mL
Procedure: as §2

| EC50 [nM] | OD values [OD] | Binder |
| --- | --- | --- |
| 0.03 | 3.61 | B6 |
| 0.6 | 3.29 | B7 |
| 0.04 | 3.7 | B8 |
| 0.14 | 3.51 | B9 |

Target: T5, cynomolgus galectin-10-His, YRT isoform
Experiment: ELISA, coated antigen 0.5 ug/mL
Procedure: as §2

| EC50 [nM] | OD values [OD] | Binder |
| --- | --- | --- |
| 0.3 | 2.97 | B6 |
|  | 1.7 | B7 |
| 0.14 | 3.36 | B8 |
|  | 2.63 | B9 |

What follows are binders tested against T6, recombinant human galectin-10, … (assay: cell-based or functional assay).

| 50% dissolution (min) of CLCs, antibody 50 uM [min] | 90% dissolution (min) of CLCs, antibody 50 uM [min] | Binder |
| --- | --- | --- |
| 22.4 | 43.5 | B6 |
| 25.5 | 57.5 | B7 |
| 25.1 | 47.4 | B8 |
| 26.5 | 58.6 | B9 |

Target: T6, recombinant human galectin-10, …
Experiment: cell-based or functional assay
Remark: another data set of the same source

| 50% crystal dissolution (min), 50 uM [min] | 90% crystal dissolution (min), 50 uM [min] | Binder |
| --- | --- | --- |
| 68.3 | > 120 | B6 |
| 73.7 | > 120 | B8 |
